Results: publication PMC7054990

Target: ALIX BRO1 domain (human)
Experiment: recruitment to supported lipid bilayers (time-lapse confocal fluorescence microscopy); supported bilayers DOPC:DOPE:PI:LBPA (4.99:2:1:2 mol) preincubated 40 min with 3.7 µM ALIX BRO1 domain or mutant, unbound protein removed, then 0.64 µM CHMP4B-488 for 25 min; ALIX buffer: 25 mM Hepes pH 7.4, 0.3 mM BAPTA, 0.3 mM NTA, 0.3 mM hydroxyethyl EDTA, 686 µM CaCl2 (20 µM free calcium)

Sequence of ALIX BRO1 domain (human) (Q9WU78 1-359): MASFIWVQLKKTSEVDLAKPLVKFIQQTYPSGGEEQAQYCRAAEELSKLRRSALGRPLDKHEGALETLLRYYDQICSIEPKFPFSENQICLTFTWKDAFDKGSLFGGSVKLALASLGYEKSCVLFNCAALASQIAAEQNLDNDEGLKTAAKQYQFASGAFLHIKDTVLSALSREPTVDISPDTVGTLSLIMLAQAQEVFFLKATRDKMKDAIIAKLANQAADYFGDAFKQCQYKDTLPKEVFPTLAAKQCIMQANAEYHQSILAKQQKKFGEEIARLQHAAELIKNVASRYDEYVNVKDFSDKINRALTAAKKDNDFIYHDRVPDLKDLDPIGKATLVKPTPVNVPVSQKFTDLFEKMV

apparent t1/2 of recruitment: 5 min
B1: Alexa Fluor 488 CHMP4B (natural protein)
chain: MSVFGKLFGAGGGKAGKGGPTPQEAIQRLRDTEEMLSKKQEFLEKKIEQELTAAKKHGTKNKRAALQALKRKKRYEKQLAQIDGTLSTIEFQREALENANTNTEVLKNMGYAAKAMKAAHDNMDIDKVDELMQDIADQQELAEEISTAISKPVGFGEEFDEDELMAELEELEQEELDKNLLEISGPETVPLPNVPSIALPSKPAKKKEEEDDDMKELENWAGSM
modifications: Alexa Fluor 488 (labelled with Alexa Fluor 488 tetrafluorophenyl ester, 1:2 protein:dye)
